Test results from PMC4245986 (Biochemistry, 2014).
Where two headings read alike, the source gives them in different places. Ends that are not written are not given here. rhodamine = not defined here

B1: dynamin 2-derived proline-rich domain peptide (peptide)
peptide: PPQIPSRPVRIPPGI
B2: exon10 peptide (peptide)
peptide: RKKSKLFSRLRRKKN
B3: rhodamine-labeled PRD peptide (peptide)
peptide: rhodamine-PPQIPSRPVRIPPGI
modifications: reading uncertain

How the values were obtained:
[1] = target: T1, GST-SH3 domain (derived from BIN1) (human); assay: ITC
T1 sequence (O00499 whole entry, looked up): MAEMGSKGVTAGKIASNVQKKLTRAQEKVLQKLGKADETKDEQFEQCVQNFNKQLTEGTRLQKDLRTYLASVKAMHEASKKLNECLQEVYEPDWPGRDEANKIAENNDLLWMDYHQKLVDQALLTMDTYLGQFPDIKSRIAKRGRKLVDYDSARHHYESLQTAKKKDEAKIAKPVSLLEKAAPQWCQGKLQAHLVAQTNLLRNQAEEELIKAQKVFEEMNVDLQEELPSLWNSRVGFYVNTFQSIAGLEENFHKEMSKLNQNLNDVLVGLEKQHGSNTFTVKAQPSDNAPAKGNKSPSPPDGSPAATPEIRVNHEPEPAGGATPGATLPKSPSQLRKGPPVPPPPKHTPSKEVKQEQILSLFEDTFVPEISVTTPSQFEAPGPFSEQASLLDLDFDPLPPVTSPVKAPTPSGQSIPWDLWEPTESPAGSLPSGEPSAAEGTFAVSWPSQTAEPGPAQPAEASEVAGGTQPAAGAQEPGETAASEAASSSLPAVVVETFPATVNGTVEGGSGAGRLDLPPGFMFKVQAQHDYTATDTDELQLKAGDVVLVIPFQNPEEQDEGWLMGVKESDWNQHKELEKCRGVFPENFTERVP

[2] = target: T1, GST-SH3 domain (derived from BIN1) (human); assay: ITC; remark: listed apart in the source
[3] = target: T1, GST-SH3 domain (derived from BIN1) (human); assay: ITC; remark: listed apart in the source
[4] = target: T1, GST-SH3 domain (derived from BIN1) (human); assay: ITC; remark: listed apart in the source
[5] = target: T2, Alexa488 labeled BIN1-FL (human, UniProt O00499-8 1-454, Alexa 488 C5-maleimide on endogenous cysteine residues); assay: recruitment of fluorescent peptide to protein-coated giant vesicles
T2 sequence (looked up): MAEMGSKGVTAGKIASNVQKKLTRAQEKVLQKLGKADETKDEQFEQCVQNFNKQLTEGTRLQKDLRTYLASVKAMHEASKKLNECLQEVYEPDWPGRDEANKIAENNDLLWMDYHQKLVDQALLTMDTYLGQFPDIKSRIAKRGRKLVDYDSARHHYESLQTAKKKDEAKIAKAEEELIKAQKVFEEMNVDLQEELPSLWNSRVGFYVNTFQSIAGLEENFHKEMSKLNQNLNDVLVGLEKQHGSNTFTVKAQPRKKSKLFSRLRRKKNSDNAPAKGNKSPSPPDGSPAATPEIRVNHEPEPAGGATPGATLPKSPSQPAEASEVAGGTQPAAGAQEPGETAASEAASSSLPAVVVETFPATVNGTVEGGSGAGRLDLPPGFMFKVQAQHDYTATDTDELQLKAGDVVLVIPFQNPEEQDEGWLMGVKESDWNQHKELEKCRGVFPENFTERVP

Binder | Kd [1] [µM] | Kd [2] [µM] | Kd [3] [µM] | stoichiometry N [1] | stoichiometry N [4] | binding result [5]
B1 | 13.7 | 68.3 | – | – | – | –
B2 | 3.9 | – | 11.3 | 1 | 1 | –
B3 | – | – | – | – | – | binds
